Common to all, as to settings: glycan lost; control: wild type
Data set [1] is described as follows: Western blot of purified Kv3.1.
Data set [2] can be described thus: train of five +40 mV pulses, whole cell.
Data set [3] can be described thus: whole cell patch clamp, 2 s pulse, +40 mV.
The nature of data set [4]: whole cell patch clamp, inactivating current type. For orientation: Patch clamp records ionic current or voltage across a cell membrane.
The nature of data set [5]: whole cell patch clamp, noninactivating current type.
Data set [6] can be described thus: whole cell patch clamp, current pattern classification.
Data set [7] is described as follows: whole cell patch clamp, inactivating current type, +40 mV.
Data set [8] is described as follows: whole cell patch clamp, noninactivating current type, +40 mV.

B1: Kv3.1: N220Q/N229Q (protein)
parent chain: MGQGDESERIVINVGGTRHQTYRSTLRTLPGTRLAWLAEPDAHSHFDYDPRADEFFFDRHPGVFAHILNYYRTGKLHCPADVCGPLYEEELAFWGIDETDVEPCCWMTYRQHRDAEEALDSFGGAPLDNSADDADADGPGDSGDGEDELEMTKRLALSDSPDGRPGGFWRRWQPRIWALFEDPYSSRYARYVAFASLFFILVSITTFCLETHERFNPIVNKTEIENVRNGTQVRYYREAETEAFLTYIEGVCVVWFTFEFLMRVVFCPNKVEFIKNSLNIIDFVAILPFYLEVGLSGLSSKAAKDVLGFLRVVRFVRILRIFKLTRHFVGLRVLGHTLRASTNEFLLLIIFLALGVLIFATMIYYAERIGAQPNDPSASEHTHFKNIPIGFWWAVVTMTTLGYGDMYPQTWSGMLVGALCALAGVLTIAMPVPVIVNNFGMYYSLAMAKQKLPKKKKKHIPRPPQLGSPNYCKSVVNSPHHSTQSDTCPLAQEEILEINRADSKLNGEVAKAALANEDCPHIDQALTPDEGLPFTRSGTRERYGPCFLLSTGEYACPPGGGMRKDLCKESPVIAKYMPTEAVRVT
As to B1, the expression_or_secretion result in data set [1] is listed as “no change”. In addition, in data set [2], the “other: peak current remaining after repetitive depolarization” value was “decreases”. Also, the “other: channel current remaining after 2 s pulse (inactivation), other: % current remaining” value (“other … % current remaining” for short) in data set [3] is reported as “increases, 62.3±3.1 vs 51.0±2.3”. Besides, in data set [4], the “other: channel current deactivation time constant, other: τoff” value (“other … τoff” below) was “increases, 6.0±0.3 vs 4.1±0.2”; the “other: channel current, G-V slope factor, other: dV” value (shortened to “other … G-V slope factor, other: dV”) is reported as “no change, 9.6±0.3 vs 10.5±0.5”; the “other: channel current, voltage of half activation, other: V0.5” value (from here on “other: channel current, voltage”) is “no change, 8.1±0.6 vs 10.1±0.7”. In addition, in data set [5], the “other … τoff” value was “increases, 5.6±0.2 vs 3.6±0.1”; the “other … G-V slope factor, other: dV” value was “no change, 18.7±0.5 vs 22.6±0.4”; the “other: channel current, voltage” value was “no change, 22.3±0.4 vs 28.1±0.7”. The “other: share of inactivating whole cell current type, other: % inactivating current type” value (“other: share … % inactivating current type” for short) in data set [6] is given as “increases, 68% vs 36%”. In addition, in data set [7], the “other: channel current activation time constant, other: τon” value (shortened to “other … τon”) was “increases, 7.5±0.8 vs 4.0±0.3” and the “other: channel current rise time, other: rise time” value (from here on “other: channel current rise time”) was “increases, 15.9±1.5 vs 8.6±0.5”. For the same protein, in data set [8], the “other … τon” value is on record as “increases, 7.4±1.2 vs 1.6±0.2” and the “other: channel current rise time” value is recorded as “increases, 10.2±1.5 vs 3.5±0.2”.

B2: Kv3.1: N220Q (protein)
parent chain: MGQGDESERIVINVGGTRHQTYRSTLRTLPGTRLAWLAEPDAHSHFDYDPRADEFFFDRHPGVFAHILNYYRTGKLHCPADVCGPLYEEELAFWGIDETDVEPCCWMTYRQHRDAEEALDSFGGAPLDNSADDADADGPGDSGDGEDELEMTKRLALSDSPDGRPGGFWRRWQPRIWALFEDPYSSRYARYVAFASLFFILVSITTFCLETHERFNPIVNKTEIENVRNGTQVRYYREAETEAFLTYIEGVCVVWFTFEFLMRVVFCPNKVEFIKNSLNIIDFVAILPFYLEVGLSGLSSKAAKDVLGFLRVVRFVRILRIFKLTRHFVGLRVLGHTLRASTNEFLLLIIFLALGVLIFATMIYYAERIGAQPNDPSASEHTHFKNIPIGFWWAVVTMTTLGYGDMYPQTWSGMLVGALCALAGVLTIAMPVPVIVNNFGMYYSLAMAKQKLPKKKKKHIPRPPQLGSPNYCKSVVNSPHHSTQSDTCPLAQEEILEINRADSKLNGEVAKAALANEDCPHIDQALTPDEGLPFTRSGTRERYGPCFLLSTGEYACPPGGGMRKDLCKESPVIAKYMPTEAVRVT
As for B2, the expression_or_secretion entry in data set [1] is “no change”. In data set [3], the “other … % current remaining” value is on record as “increases, 60.2±2.7 vs 51.0±2.3”. Besides, in data set [4], the “other … τoff” value is “no change, 4.7±0.4 vs 4.1±0.2”; the “other … G-V slope factor, other: dV” value is reported as “no change, 9.9±0.4 vs 10.5±0.5”; the “other: channel current, voltage” value is “no change, 9.2±0.8 vs 10.1±0.7”. For the same protein, in data set [5], the “other … τoff” value is “no change, 4.0±0.3 vs 3.6±0.1”; the “other … G-V slope factor, other: dV” value is “no change, 19.8±0.6 vs 22.6±0.4”; the “other: channel current, voltage” value is reported as “no change, 30.7±0.6 vs 28.1±0.7”. Besides, the “other: share … % inactivating current type” value in data set [6] was “increases, 65% vs 36%”. For the same protein, in data set [7], the “other … τon” value was “no change, 5.3±1.0 vs 4.0±0.3” and the “other: channel current rise time” value is reported as “increases, 10.6±0.9 vs 8.6±0.5”. Besides, in data set [8], the “other … τon” value is reported as “no change, 1.4±0.4 vs 1.6±0.2” and the “other: channel current rise time” value is reported as “no change, 3.2±0.4 vs 3.5±0.2”.

B3: Kv3.1: N229Q (protein)
parent chain: MGQGDESERIVINVGGTRHQTYRSTLRTLPGTRLAWLAEPDAHSHFDYDPRADEFFFDRHPGVFAHILNYYRTGKLHCPADVCGPLYEEELAFWGIDETDVEPCCWMTYRQHRDAEEALDSFGGAPLDNSADDADADGPGDSGDGEDELEMTKRLALSDSPDGRPGGFWRRWQPRIWALFEDPYSSRYARYVAFASLFFILVSITTFCLETHERFNPIVNKTEIENVRNGTQVRYYREAETEAFLTYIEGVCVVWFTFEFLMRVVFCPNKVEFIKNSLNIIDFVAILPFYLEVGLSGLSSKAAKDVLGFLRVVRFVRILRIFKLTRHFVGLRVLGHTLRASTNEFLLLIIFLALGVLIFATMIYYAERIGAQPNDPSASEHTHFKNIPIGFWWAVVTMTTLGYGDMYPQTWSGMLVGALCALAGVLTIAMPVPVIVNNFGMYYSLAMAKQKLPKKKKKHIPRPPQLGSPNYCKSVVNSPHHSTQSDTCPLAQEEILEINRADSKLNGEVAKAALANEDCPHIDQALTPDEGLPFTRSGTRERYGPCFLLSTGEYACPPGGGMRKDLCKESPVIAKYMPTEAVRVT
On to B3, for which the expression_or_secretion result in data set [1] is reported as “no change”. Further, in data set [3], the “other … % current remaining” value is “increases, 64.8±4.1 vs 51.0±2.3”. Moreover, in data set [4], the “other … τoff” value is listed as “increases, 5.1±0.2 vs 4.1±0.2”; the “other … G-V slope factor, other: dV” value was “no change, 10.8±0.7 vs 10.5±0.5”; the “other: channel current, voltage” value is reported as “no change, 13.1±0.8 vs 10.1±0.7”. Also, in data set [5], the “other … τoff” value was “no change, 3.9±0.2 vs 3.6±0.1”; the “other … G-V slope factor, other: dV” value is listed as “no change, 24.3±0.6 vs 22.6±0.4”; the “other: channel current, voltage” value is listed as “no change, 27.5±0.5 vs 28.1±0.7”. Also, the “other: share … % inactivating current type” value in data set [6] is recorded as “no change, 29% vs 36%”. In data set [7], the “other … τon” value is “increases, 6.6±0.9 vs 4.0±0.3” and the “other: channel current rise time” value is “increases, 12.7±1.6 vs 8.6±0.5”. For the same protein, in data set [8], the “other … τon” value is listed as “no change, 1.2±0.1 vs 1.6±0.2” and the “other: channel current rise time” value is recorded as “no change, 3.1±0.1 vs 3.5±0.2”.
